Assay results published in PMC11066036.

B1: HPK1 kinase domain (KD TSEE WT) [not stated] / HPK1 intact citron homology domain fragment (C428-E821), untagged [not stated] (parent)
chain 1: CASGPPPNSPRPGPPPSTSSPHLTAHSEPSLWNPPSRELDKPPLLPPKKEKMKRKGCALLVKLFNGCPLRIHSTAAWTHPSTKDQHLLLGAEEGIFILNRNDQEATLEMLFPSRTTWVYSINNVLMSLSGKTPHLYSHSILGLLERKETRAGNPIAHISPHRLLARKNMVSTKIQDTKGCRACCVAEGASSGGPFLCGALETSVVLLQWYQPMNKFLLVRQVLFPLPTPLSVFALLTGPGSELPAVCIGVSPGRPGKSVLFHTVRFGALSCWLGEMSTEHRGPVQVTQVEEDMVMVLMDGSVKLVTPEGSPVRGLRTPEIPMTEAVEAVAMVGGQLQAFWKHGVQVWALGSDQLLQELRDPTLTFRLLGSPRPVVVETRPVDDPTAPSNLYIQE
chain 2: DVVDPDIFNRDPRDHYDLLQRLGGGTYGEVFKARDKVSGDLVALKMVKMEPDDDVSTLQKEILILKTCRHANIVAYHGSYLWLQKLWICMEFCGAGSLQDIYQVTGSLSELQISYVCREVLQGLAYLHSQKKIHRDIKGANILINDAGEVRLADFGISAQIGAELARRLEFIGTPYWMAPEVAAVALKGGYNELCDIWSLGITAIELAELQPPLFDVHPLRVLFLMTKSGYQPPRLKEKGKWSAAFHNFIKVTLTKSPKKRPSATKMLSHQLVSQPGLNRGLILDLLDKLKN

Variants of: B1
Assay: SPR
Details: with HPK1 intact citron homology domain fragment (C428-E821), left plot, plateau of the last (highest) of five successive CHD injections, about 800-900 s, CHD concentrations not given, parent: 30, read off a plot

| response (Response Units) | Variant |
| --- | --- |
| 43 | chain 2 L220K |
